We go through one substance from article PMC6881245.

In experiment [1] the target is Complement C1q (UniProt P02745).
For experiment [2] the target is unchanged. This is another data set of the same source.
Experiment [3] has the same target. Briefly: flow cytometry on cholesterol crystals; C1q (50 μg/ml in PBS, 1 h RT) bound to cholesterol crystals (1.6 mg/ml), washed; vWF 10 μg/ml in PBS added for 1 h at RT, washed; vWF detected with polyclonal rabbit anti-vWF and anti-rabbit IgG-AF647; BD Accuri 6; n = 5.

UniProt P02745, sequence (P02745 23-245, chain 1 of 3): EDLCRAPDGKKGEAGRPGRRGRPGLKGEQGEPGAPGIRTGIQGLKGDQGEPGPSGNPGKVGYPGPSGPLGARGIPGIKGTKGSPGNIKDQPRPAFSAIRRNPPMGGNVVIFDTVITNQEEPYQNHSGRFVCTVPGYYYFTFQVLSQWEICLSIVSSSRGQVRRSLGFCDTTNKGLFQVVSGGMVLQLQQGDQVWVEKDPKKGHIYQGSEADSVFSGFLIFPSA
UniProt P02745, sequence (P02746 28-253, chain 2 of 3, further chain): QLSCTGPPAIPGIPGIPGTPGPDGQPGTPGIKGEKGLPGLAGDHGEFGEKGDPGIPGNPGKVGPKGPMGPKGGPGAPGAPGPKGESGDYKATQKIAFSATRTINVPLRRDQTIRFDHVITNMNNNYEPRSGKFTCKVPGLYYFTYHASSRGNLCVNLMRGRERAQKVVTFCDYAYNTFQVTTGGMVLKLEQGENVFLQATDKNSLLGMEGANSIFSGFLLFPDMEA
UniProt P02745, sequence (P02747 29-245, chain 3 of 3, further chain): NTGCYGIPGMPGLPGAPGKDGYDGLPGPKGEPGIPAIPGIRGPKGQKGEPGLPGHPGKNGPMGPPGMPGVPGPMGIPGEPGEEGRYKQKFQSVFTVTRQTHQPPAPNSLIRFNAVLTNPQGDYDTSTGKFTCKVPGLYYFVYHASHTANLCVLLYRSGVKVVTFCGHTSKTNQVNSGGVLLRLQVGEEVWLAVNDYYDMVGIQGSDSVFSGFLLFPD

Turning to “von Willebrand factor (from UniProt P04275 764-2813) (natural protein)”, in experiment [1], the early phagocytosis (30 min) of pHrodo-dyed CC-C1q-vWF complexes by HMDMs, percent of CD11c+ cells in the pHrodo Red Ester+ gate; CC-C1q without vWF: 62, 40% (49.05–68.78%) came to 54.5% and the late phagocytosis (18 h) of CC-C1q-vWF complexes by HMDMs, percent of CD11c+ cells in the SSC^high gate; CC-C1q without vWF: 24.05% (22.55–34.60%) was determined as 13.7%. In addition, the caspase-1 activity of HMDMs after 18 h with CC-C1q-vWF complexes, percent of CD11c+ cells in the FLICA+ gate; CC-C1q without vWF: 11.54% (7.29–28.38%) in experiment [2] is 9.37%. Moreover, in experiment [3], the median gMFI of vWF staining on CC-C1q was 115000 gMFI.
